B1: PLD5 (parent)
chain: VTYMNMTAYNKGRLQSSFWIVDKQ
B2: HSP90AB1 (parent)
chain: YHTSQSGDEMTSLSEYVSRMKETQ

Variants of: B1
Test: protein stability index of a GFP-peptide fusion (GPS, HEK-293T) (PSI 1-6); higher = more stable
Conditions: c terminus: a fixed tail appended
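Further: lentivirally expressed fusions sorted by FACS into six bins by GFP to DsRed ratio, PSI derived from sequencing read proportions per bin multiplied by bin number.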

Protein stability index of substitutions, site by site:
S17: H 1.93 | N 1.49 | D 2.15 | R 3.71 | M 4.26
M6: A 1.18 | C 2.61 | K 1.58 | T 1.58 | F 2.16 | G 2.46 | I 2.91 | S 1.87 | R 2.06 | Y 2.08 | Q 2.1 | L 3.25 | P 1.6 | N 1.76 | V 2.89 | D 2.13 | E 1.65 | H 1.93
T7: E 1.02 | F 1.89 | L 2.3 | N 2.46 | V 2.61 | P 1.22 | A 3.57 | S 2.21 | D 1.87 | Q 2.36 | H 2.05
M4: P 2.09 | R 1.34 | T 2.44 | Y 2.31 | V 3.21 | C 3.5 | Q 2.18 | L 1.68 | E 2.3 | K 2.05 | S 3.45 | D 1.89 | A 1.98 | F 3.33 | G 2.13 | H 1.89 | N 1.5
V21: A 2.08 | I 2.63 | M 1.52 | K 2.31 | D 1.96 | Q 1.89 | P 1.85 | H 1.28 | C 1.38 | L 2.21 | G 1.53 | F 1.43 | E 1.5 | N 2.82
I20: T 1.4 | C 1.76 | H 2.41 | L 1.22 | M 3.68 | Y 2.98 | A 1.41 | Q 1.97 | K 2.27 | P 1.7 | D 1.33 | R 1.51 | S 2.09 | E 2.23 | N 1.91 | G 1.25 | W 2.26
T2: Q 2.08 | E 1.87 | H 2.6 | D 1.67 | C 2.25 | I 1.76 | W 1.4 | A 2.55 | P 1.68 | K 2.52 | M 2.88 | G 2.08 | N 1.29 | R 1.91 | S 1.87
W19: S 2.29 | C 1.49 | P 1.98 | G 2.01 | I 1.76 | V 1.65 | R 1.91 | L 2 | D 2.45 | M 1.62 | T 2.18 | E 2.04 | H 2.21 | Q 2.46 | K 1.84 | A 1.8 | Y 1.91 | F 2.04
Y9: P 1.1 | F 3.22 | E 2.11 | Q 1.33 | G 2.11 | R 1.58 | K 2.02 | M 2.17 | S 1.83 | T 2.06 | A 1.62 | V 1.81 | C 2.55 | I 2.59 | H 1.75 | W 3.74 | D 2.58 | N 1.78 | L 1.92
R13: H 3.22 | K 1.27 | A 3.25 | L 1.51 | S 1.59 | I 2.15 | G 1.6 | W 4.66 | N 1.52 | Q 2.13 | D 3.06 | Y 2.93 | E 1.73 | M 2.14 | T 1.48
N5: A 3.48 | R 3.38 | W 3.13 | P 1.49 | E 2.76 | I 2.99 | F 2.69 | M 3.53 | D 1.45 | L 3 | T 2.08

Variants of: B2
Test: as above
Conditions: c terminus: a fixed tail appended

Protein stability index of substitutions, site by site:
E15: R 2.85
Y16: F 3.49
K21: A 3.71
S4: W 1.96
Y1: W 4.2
M20: R 4.26 | Q 4.13

— the supplement of paper PMC10567573
